Reference: the Human Domainome abundance scans (Beltran et al. 2025)
± gives the uncertainty stated by the source.

B1: Nucleolar transcription factor 1, residues 408 to 469; numbered along this chain, P17480 (parent)
chain: KRPVSAMFIFSEEKRRQLQEERPELSESELTRLLARMWNDLSEKKKAKYKAREAALKAQSER

Variants of: B1
Experiment: abundance fitness (aPCA) (normalised: wild type 0, dead -1); higher = more abundant; growth selection in yeast, the domain comes from the species named
Conditions: Homo sapiens

In order of rising abundance fitness:
1. KRPVSAMFIFSEEKRRQLQEERPELSESELTRLKARMWNDLSEKKKAKYKAREAALKAQSER  -1.27 ± 0.21
2. KRPVSAMFIFSEEKRRQLQEERPELSESELTRLDARMWNDLSEKKKAKYKAREAALKAQSER  -1.19 ± 0.45
3. KRPVSAMFIFSEEKRRQLQEERPELSESELTRLWARMWNDLSEKKKAKYKAREAALKAQSER  -1.01 ± 0.062
4. KRPVSAMFIFSEEKRRQLQEERPELSESELTRLRARMWNDLSEKKKAKYKAREAALKAQSER  -0.954 ± 0.06
5. KRPVSAMFIFSEEKRRQLQEERPELSESELTRLPARMWNDLSEKKKAKYKAREAALKAQSER  -0.945 ± 0.17
6. KRPVSAMFIFSEEKRRQLQEERPELSESELTRLNARMWNDLSEKKKAKYKAREAALKAQSER  -0.931 ± 0.12
7. KRPVSAMFIFSEEKRRQLQEERPELSESELTRLQARMWNDLSEKKKAKYKAREAALKAQSER  -0.525 ± 0.085
8. KRPVSAMFIFSEEKRRQLQEERPELSESELTRLLAPMWNDLSEKKKAKYKAREAALKAQSER  -0.483 ± 0.11
9. KRPVSAMFIFSEEKRRQLQEERPELSESELTRLLYRMWNDLSEKKKAKYKAREAALKAQSER  -0.387 ± 0.1
10. KRPVSAMFIFSEEKRRQLQEERPELSESELTRLLHRMWNDLSEKKKAKYKAREAALKAQSER  -0.341 ± 0.076
11. KRPVSAMFIFSEEKRRQLQEERPELSESELTRLLAHMWNDLSEKKKAKYKAREAALKAQSER  -0.321 ± 0.24
12. KRPVSAMFIFSEEKRRQLQEERPELSESELTRLFARMWNDLSEKKKAKYKAREAALKAQSER  -0.296 ± 0.12
13. KRPVSAMFIFSEEKRRQLQEERPELSESELTRLLWRMWNDLSEKKKAKYKAREAALKAQSER  -0.273 ± 0.056
14. KRPVSAMFIFSEEKRRQLQEERPELSESELTRLLCRMWNDLSEKKKAKYKAREAALKAQSER  -0.194 ± 0.13
15. KRPVSAMFIFSEEKRRQLQEERPELSESELTRLLAWMWNDLSEKKKAKYKAREAALKAQSER  -0.182 ± 0.058
16. KRPVSAMFIFSEEKRRQLQEERPELSESELTRLLFRMWNDLSEKKKAKYKAREAALKAQSER  -0.176 ± 0.096
17. KRPVSAMFIFSEEKRRQLQEERPELSESELTRLLAGMWNDLSEKKKAKYKAREAALKAQSER  -0.111 ± 0.039
18. KRPVSAMFIFSEEKRRQLQEERPELSESELTRLLAMMWNDLSEKKKAKYKAREAALKAQSER  -0.103 ± 0.066
19. KRPVSAMFIFSEEKRRQLQEERPELSESELTRLLMRMWNDLSEKKKAKYKAREAALKAQSER  -0.102 ± 0.063
20. KRPVSAMFIFSEEKRRQLQEERPELSESELTRLLAIMWNDLSEKKKAKYKAREAALKAQSER  -0.101 ± 0.12
21. KRPVSAMFIFSEEKRRQLQEERPELSESELTRLLAFMWNDLSEKKKAKYKAREAALKAQSER  -0.097 ± 0.11
22. KRPVSAMFIFSEEKRRQLQEERPELSESELTRLLAQMWNDLSEKKKAKYKAREAALKAQSER  -0.096 ± 0.087
23. KRPVSAMFIFSEEKRRQLQEERPELSESELTRLLALMWNDLSEKKKAKYKAREAALKAQSER  -0.093 ± 0.046
24. KRPVSAMFIFSEEKRRQLQEERPELSESELTRLLAEMWNDLSEKKKAKYKAREAALKAQSER  -0.084 ± 0.054
25. KRPVSAMFIFSEEKRRQLQEERPELSESELTRLIARMWNDLSEKKKAKYKAREAALKAQSER  -0.074 ± 0.091
26. KRPVSAMFIFSEEKRRQLQEERPELSESELTRLLAKMWNDLSEKKKAKYKAREAALKAQSER  -0.072 ± 0.08
27. KRPVSAMFIFSEEKRRQLQEERPELSESELTRLLLRMWNDLSEKKKAKYKAREAALKAQSER  -0.063 ± 0.038
28. KRPVSAMFIFSEEKRRQLQEERPELSESELTRLLSRMWNDLSEKKKAKYKAREAALKAQSER  -0.063 ± 0.063
29. KRPVSAMFIFSEEKRRQLQEERPELSESELTRLLVRMWNDLSEKKKAKYKAREAALKAQSER  -0.057 ± 0.047
30. KRPVSAMFIFSEEKRRQLQEERPELSESELTRLLACMWNDLSEKKKAKYKAREAALKAQSER  -0.051 ± 0.078
31. KRPVSAMFIFSEEKRRQLQEERPELSESELTRLLAVMWNDLSEKKKAKYKAREAALKAQSER  -0.05 ± 0.052
32. KRPVSAMFIFSEEKRRQLQEERPELSESELTRLLATMWNDLSEKKKAKYKAREAALKAQSER  -0.037 ± 0.071
33. KRPVSAMFIFSEEKRRQLQEERPELSESELTRLLDRMWNDLSEKKKAKYKAREAALKAQSER  -0.035 ± 0.097
34. KRPVSAMFIFSEEKRRQLQEERPELSESELTRLVARMWNDLSEKKKAKYKAREAALKAQSER  -0.026 ± 0.057
35. KRPVSAMFIFSEEKRRQLQEERPELSESELTRLLANMWNDLSEKKKAKYKAREAALKAQSER  -0.023 ± 0.12
36. KRPVSAMFIFSEEKRRQLQEERPELSESELTRLLRRMWNDLSEKKKAKYKAREAALKAQSER  -0.018 ± 0.049
37. KRPVSAMFIFSEEKRRQLQEERPELSESELTRLLQRMWNDLSEKKKAKYKAREAALKAQSER  -0.017 ± 0.095
38. KRPVSAMFIFSEEKRRQLQEERPELSESELTRLLIRMWNDLSEKKKAKYKAREAALKAQSER  -0.015 ± 0.11
39. KRPVSAMFIFSEEKRRQLQEERPELSESELTRLLNRMWNDLSEKKKAKYKAREAALKAQSER  -0.011 ± 0.14
40. KRPVSAMFIFSEEKRRQLQEERPELSESELTRLLERMWNDLSEKKKAKYKAREAALKAQSER  -0.009 ± 0.058
41. KRPVSAMFIFSEEKRRQLQEERPELSESELTRLLAAMWNDLSEKKKAKYKAREAALKAQSER  -0.006 ± 0.063
42. KRPVSAMFIFSEEKRRQLQEERPELSESELTRLLTRMWNDLSEKKKAKYKAREAALKAQSER  0.014 ± 0.093
43. KRPVSAMFIFSEEKRRQLQEERPELSESELTRLLADMWNDLSEKKKAKYKAREAALKAQSER  0.028 ± 0.095
